# Laboratory results taken from PMC11290490, “Structural insights into activation mechanisms on NADase of the bacterial DSR2 anti-phage defense system” (Science Advances, 2024).
# B1: defense-associated sirtuin2 (DSR2) from Bacillus subtilis 29R (enzyme, UniProt P0DXN8 1-1005, looked up)
# chain: MVKVDLESKRYGEKLKEVFLMLDNNVVECIKEITESSRNGKLVFFVGAGVSTLSDYPQWWRLVDKYHEELYGSPKKGNYSSDEYLRIPQIFYNVKGEMAFDGILKDFFQVDKPTNPIHDKILAMNPAHVITTNYDNLIDTACWKRGKYFSVISAEEDVANATSSRYLLKVHGDFRKGFKGENVVLKEDDYLNYDQNYPLISNLMKTIIATHTIVFIGYGLGDYNINMLLNWVRKLQKDSFHKPFFIRTDPSPIENETLIYYENKGLRIIDAASLIDSNEYDYLERYSAVMDLLIESQENKFITKDDEVIDYIYGKISPLFALQYIRKIDLKHVFEYDYHFEVNGTVVRHKNKGFGYMERFFELKESCDERSKLSKKQYERFNALFNFFEKNGVICMAKDAGTLNTSIEINSLAYHGKYDVMKKFIEEQSVSIEDDYKKAFFLACLGRWEESYDLYSNIILNSIDESNGCVYYLSQINRYRIYQSITQAVTQFNGLGLLTFGRHYKPFTDEFLARIEREMTNFNIDDLFNGMPFEFQKKYKILEFLSDNQFLYDDTVKLFELTNKVRSEMSEGSYSFGMSSDIVVLLRLYDNLRFLYENCLWSVSFHEFHQYIRNSMSLLIEKAEYERTRDIDELGFSFFGKKSGFFMEYYDFVNISRHFKIDDIKNLERSCSIDKIRFGEQEKIEEYLVGIAEEITKQFSANGMNVVFYTQFISEAKAALYFAKYVKLSEEGLGKIVKALLFYFPERDLDIGKRYVWLERLTKCNELPKSIISIIDDFLVLQAEKHIDQNYSEVSSNGLYSRDYGALIKHFEKNFISKRLSEITLCLTQDKQKQIDFLFKLLPLLSTNAKSHLLSFKSVENINDLMNGIRIGLIDEFTPEHEELIIEYLETRKVNYIVEKEKGIQTFSSNDYMSTFGIWYFLEEINNSKMEEFIGMDDQYDFFVDPENFDYKKFIPSWLKNYNDKLLGKIAGNKHMKHHVIEVLKERVKNSNDKRYLEILMNYFI
# notes: DSR2 from Bacillus subtilis 29R, WP_029317421; SIR2 domain residues 1 to 297, MID 297 to 627, CTD 627 to 1005; Cloned into pET28a; tag not cleaved (purified directly by SEC); For MST the protein was fluorescently labelled with the Monolith Protein Labeling Kit RED-NHS second generation; also called DSR2^WT; His-tag DSR2; source: E. coli BL21(DE3), purified (Ni-NTA, size-exclusion gel filtration)
# B2: DSR anti-defense 1 (DSAD1) from phage phi3T/SPbeta (natural protein)
# chain: KDTGATHDLVYHSKINTFVWDVEFDIVLSDSKELNKCYFVKCFNPYRINGKCDFAVSSIDIFSEGKRLLIENEFNFKITKAVHVATSKDVTEIVLHLSERISSPFPIVKEVVYLD
# notes: DSAD1 from phage phi3T/SPbeta, WP_004399562; source: E. coli BL21(DE3), purified (Ni-NTA, TEV cleavage, SEC); not shown: His-tag, N-terminal, cleaved; Trx-tag, N-terminal, cleaved
# B3: monomeric tail tube protein (TTP) of phage SPR (natural protein)
# chain: MKTVIQDTADVYFKRKSDGKLVFTAEAQTASFSQAISEEKLRGGIGNKPLYILKSEKEINLTVKNAFFDLEWLAMTQGETIQEETKVKVFDREHGLIVDDTNKVTLKGKPVSDVTFYNKKGLTYKIAVSTDGTYTIPTAFAAAKDKLTAVYQIEKVGRRLAIKASKFSERYEVEYRTIAYNPDTEEVYSDIYIQFPNVSPSGEFEMSLENGNALAPEIKFEALADTDTDEMAVVIEASRDENTAAPVEDTTGSTQSSDLGGTTE
# notes: tail tube protein (TTP) from phage SPR, WP_010328117; residues 1 to 73 and 189 to 263 seen in the complex structure; also called Mono TTP; monomeric TTP; source: E. coli BL21(DE3), purified (Ni-NTA, TEV cleavage, SEC; monomeric fraction); not shown: His-tag, N-terminal, cleaved; Trx-tag, N-terminal, cleaved
# What was measured:
# [1] = target: the molecule itself; test: cryo-EM structure; purified DSR2 or its complex with DSAD1 or TTP (formed at a molar ratio of 1:3, on ice, purified by gel filtration), 1.0 mg/ml on Quantifoil grids
# [2] = target: B1; test: MST; DSR2 fluorescently labelled (RED-NHS), 100 nM, mixed with twofold dilutions of TTP or DSAD1; 10 mM phosphate-buffered saline, 0.05% Tween 20; 20 min at room temperature; Monolith NT.115; triplicate; details: both partners purified
# [3] = target: B1; test: cryo-EM structure; purified DSR2 or its complex with DSAD1 or TTP (formed at a molar ratio of 1:3, on ice, purified by gel filtration), 1.0 mg/ml on Quantifoil grids; details: both partners purified
Binder,stoichiometry N [1],Kd [2] [nM],stoichiometry N [3]
B1,4,–,–
B2,–,40.4,0.5 DSAD1:DSR2
B3,–,655,–
